Test results taken from article PMC11077089, “Molecular basis of A. thaliana KEOPS complex in biosynthesizing tRNA t6A”.
Where a chain is given by its changes, count along the chain named.

Assays:
Assay in all cases: EMSA; 1:5 RNA:protein; MST: 20 mM PBS pH 7.5, 300 mM NaCl, 0.05% Tween 20, 25 C, 50 nM RNA; EMSA: 20 mM Tris-HCl pH 7.5, 300 mM NaCl, 5 mM b-mercaptoethanol, 20% glycerol, agarose gel in Tris-glycine pH 8.0 (8.5 for FAM-RNA), 4 C
Conditions in all cases: protein: recombinant;recombinant;recombinant;recombinant; tags: ;none (6His on partner CGI121);6His (C-term);6His (C-term); chain copies: 2;2;2;2; label: 5' 6-FAM; tRNA cloverleaf
[1] = target: T1, KAE1 Y305A;BUD32;CGI121;PCC1 (Arabidopsis thaliana;Arabidopsis …, UniProt O49653;Q94K14;Q6NMZ4;Q8GWD7 1-353;1-226;1-172;1-96, Y305A|||)
T1 sequence 1: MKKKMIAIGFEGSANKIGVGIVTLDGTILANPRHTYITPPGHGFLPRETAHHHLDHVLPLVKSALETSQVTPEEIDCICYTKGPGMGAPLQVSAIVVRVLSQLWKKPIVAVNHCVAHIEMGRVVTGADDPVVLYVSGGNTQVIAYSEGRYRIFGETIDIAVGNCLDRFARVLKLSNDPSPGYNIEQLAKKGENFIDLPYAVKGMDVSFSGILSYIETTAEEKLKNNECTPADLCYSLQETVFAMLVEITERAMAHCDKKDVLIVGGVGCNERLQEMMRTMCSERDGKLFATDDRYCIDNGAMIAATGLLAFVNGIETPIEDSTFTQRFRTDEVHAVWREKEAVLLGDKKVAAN
T1 sequence 2: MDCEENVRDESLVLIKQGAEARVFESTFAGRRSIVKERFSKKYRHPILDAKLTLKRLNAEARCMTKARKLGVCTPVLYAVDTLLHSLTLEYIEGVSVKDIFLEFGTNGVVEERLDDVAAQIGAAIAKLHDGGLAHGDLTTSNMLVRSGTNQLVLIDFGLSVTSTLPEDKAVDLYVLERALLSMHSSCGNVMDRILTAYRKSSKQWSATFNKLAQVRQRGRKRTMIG
T1 sequence 3: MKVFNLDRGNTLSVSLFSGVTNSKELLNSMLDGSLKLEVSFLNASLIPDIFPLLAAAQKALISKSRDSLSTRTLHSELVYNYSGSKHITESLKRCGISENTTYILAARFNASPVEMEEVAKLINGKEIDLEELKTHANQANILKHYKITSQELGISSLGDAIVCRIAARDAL
T1 sequence 4: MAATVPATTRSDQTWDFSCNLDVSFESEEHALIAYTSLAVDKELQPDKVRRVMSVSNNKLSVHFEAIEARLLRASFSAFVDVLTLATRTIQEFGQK

[2] = target: T2, KAE1 I17F;BUD32;CGI121;PCC1 (Arabidopsis thaliana;Arabidopsis …, UniProt O49653;Q94K14;Q6NMZ4;Q8GWD7 1-353;1-226;1-172;1-96, I17F|||)
T2 sequence 1: T1 sequence 1 with I17F, A305Y
T2 sequence 2: T1 sequence 2
T2 sequence 3: T1 sequence 3
T2 sequence 4: T1 sequence 4

[3] = target: T3, KAE1 H117A;BUD32;CGI121;PCC1 (Arabidopsis thaliana;Arabidopsis …, UniProt O49653;Q94K14;Q6NMZ4;Q8GWD7 1-353;1-226;1-172;1-96, H117A|||)
T3 sequence 1: T1 sequence 1 with H117A, A305Y
T3 sequence 2: T1 sequence 2
T3 sequence 3: T1 sequence 3
T3 sequence 4: T1 sequence 4

Measured: binding result

B1: 5'-6FAM-tRNAArgCCU (structured_RNA)
RNA: GCGCCUGUAGCUCAGUGGAUAGAGCGUCUGUUUCCUAAGCAGAAGGUCGUAGGUUCGACCCCUACCUGGCGCGCCA
binds: [1] | [2] | [3]
